Experimental data published in US20140087995A1 (published 2014).
Numbered stars: 1 amine (or outer) side, 2 acyl side, 3 side chain; on linkers, the order of the positions; unused ones are H or OH. Bridge positions count the residues as written; N and C are the ends. Side chains are listed from the residue outwards. Ends that are not written are not given here. * marks the point of attachment. C20 diacid = O=C(O)CCCCCCCCCCCCCCCCCCC(=O)*; γGlu = O=C(O)[C@H](CCC(=O)[*:2])N[*:1]

T1: human amylin receptor (amylin 3(a) receptor: human calcitonin receptor with RAMP-3) (human, UniProt P30988 25-474; O60896 24-148)
T1 construct: whole, on cells; the functional assay (Assay IIa) used the whole cells; also called hAmylin-R; hAmylinR
T1 sequence (looked up) 1: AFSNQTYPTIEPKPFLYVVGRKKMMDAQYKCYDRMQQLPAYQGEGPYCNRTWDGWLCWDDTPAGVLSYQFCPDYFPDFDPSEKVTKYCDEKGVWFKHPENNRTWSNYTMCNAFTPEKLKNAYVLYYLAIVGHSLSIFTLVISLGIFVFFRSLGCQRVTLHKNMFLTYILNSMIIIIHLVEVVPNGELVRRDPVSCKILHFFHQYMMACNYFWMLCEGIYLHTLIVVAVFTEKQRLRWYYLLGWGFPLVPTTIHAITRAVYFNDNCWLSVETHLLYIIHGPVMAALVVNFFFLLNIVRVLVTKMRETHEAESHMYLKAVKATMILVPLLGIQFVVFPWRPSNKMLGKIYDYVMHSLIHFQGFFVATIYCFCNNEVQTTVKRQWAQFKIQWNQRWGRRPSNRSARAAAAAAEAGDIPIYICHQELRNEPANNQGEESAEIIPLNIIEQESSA
T1 sequence (looked up) 2: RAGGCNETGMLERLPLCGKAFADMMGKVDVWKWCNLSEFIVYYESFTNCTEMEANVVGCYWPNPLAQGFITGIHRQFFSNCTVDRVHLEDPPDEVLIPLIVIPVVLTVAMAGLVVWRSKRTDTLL

T2: human calcitonin receptor (human, UniProt P30988 25-474)
T2 sequence (looked up): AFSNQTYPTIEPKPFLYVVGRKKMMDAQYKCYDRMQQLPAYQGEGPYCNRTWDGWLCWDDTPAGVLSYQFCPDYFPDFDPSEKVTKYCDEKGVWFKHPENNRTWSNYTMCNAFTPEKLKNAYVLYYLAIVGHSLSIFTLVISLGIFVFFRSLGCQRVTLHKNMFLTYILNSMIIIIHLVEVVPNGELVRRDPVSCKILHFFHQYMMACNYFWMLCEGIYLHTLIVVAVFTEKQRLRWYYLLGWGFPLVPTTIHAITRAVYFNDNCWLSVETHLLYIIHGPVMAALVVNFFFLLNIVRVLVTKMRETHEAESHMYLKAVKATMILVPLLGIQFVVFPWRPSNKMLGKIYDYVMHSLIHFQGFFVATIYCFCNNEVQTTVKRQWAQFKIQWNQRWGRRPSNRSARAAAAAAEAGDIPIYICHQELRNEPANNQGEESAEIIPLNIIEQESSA


What was measured:
[1] = molecular target: T1, human amylin receptor (amylin 3(a) …); experiment: SPA competition, displacement of 125I-rat amylin from membranes of BHK cells with the human amylin 3(a) receptor
Protocol: The binding assay was performed using scintillation proximity assay (SPA) beads (RPNQ0001) from PerkinElmer and cell membranes from the Amylin 3(a)/CRE-luc cells (as described in Assay (II)) were used. Membranes were prepared in the following way; the cells were rinsed with PBS and incubated with Versene for approximately 5 min before harvesting. The cells were flushed with PBS and the cell-suspension was centrifuged for 5 min at 1000 rpm. Cells were homogenized (ultrathurrax) in a buffer containing 20 mM Na-HEPES and 10 mM EDTA (pH 7.4) and centrifuged at 20.000 rpm for 15 min. The resulting pellet was resuspended, homogenized and centrifuged (20.000 rpm, 15 min) in a buffer containing 20 mM Na-HEPES and 0.1 mM EDTA (pH 7.4, buffer 2). The resulting pellet was resuspended in buffer 2 and protein concentration was measured (BCA protein Assay, Pierce). The homogenate was kept cold during the whole procedure. The membranes were kept at −80° C. until use. The assay was performed in a 384 well Optiplate (PerkinElmer) in a total volume of 40 ul. Membranes were mixed with SPA beads. Final concentration of membranes 35 ng/μL final and SPA beads was 0.05 mg/well. Test-compounds were dissolved in DMSO and further diluted in assay buffer (50 mM Hepes, pH 7.4, 1 mM CaCl2, 5 mM MgCl₂, 0.1% OA and 0.02% Tween20). […] The final mixture was incubated with shaking at 400 rpm for 120 min at 25° C. prior to centrifugation (1500 rpm, 10 min). Samples were analyzed on TopCounter™ (Packard). The IC₅₀ was calculated using (one site binding competition analysis) GraphPad Prism5 as a measure of receptor affinity.

[2] = molecular target: T2, human calcitonin receptor; experiment: cell-based or functional assay
[3] = molecular target: T1, human amylin receptor (amylin 3(a) …); experiment: cell-based or functional assay

Binder | IC50 [1] [nM] | Ratio hCT/hAmylin funct. [2] | hCTR funct. EC50 [2] [nM] | hAmylin-R funct. EC50 [3] [nM]
{C20 diacid-γGlu}-KCNTATCATQRLAEFLRHSSPNFGPILPPTNVGSNTY-NH2 (disulfide 2-7; SMILES CC[C@H](C)[C@H](NC(=O)[C@@H]1CCCN1C(=O)CNC(=O)[C@H](Cc1ccccc1)NC(=O)[C@H](CC(N)=O)NC(=O)[C@@H]1CCCN1C(=O)[C@H](CO)NC(=O)[C@H](CO)NC(=O)[C@H](Cc1c[nH]cn1)NC(=O)[C@H](CCCNC(=N)N)NC(=O)[C@H](CC(C)C)NC(=O)[C@H](Cc1ccccc1)NC(=O)[C@H](CCC(=O)O)NC(=O)[C@H](C)NC(=O)[C@H](CC(C)C)NC(=O)[C@H](CCCNC(=N)N)NC(=O)[C@H](CCC(N)=O)NC(=O)[C@@H](NC(=O)[C@H](C)NC(=O)[C@@H]1CSSC[C@H](NC(=O)[C@H](CCCCN)NC(=O)CC[C@H](NC(=O)CCCCCCCCCCCCCCCCCCC(=O)O)C(=O)O)C(=O)N[C@@H](CC(N)=O)C(=O)N[C@@H]([C@@H](C)O)C(=O)N[C@@H](C)C(=O)N[C@@H]([C@@H](C)O)C(=O)N1)[C@@H](C)O)C(=O)N[C@@H](CC(C)C)C(=O)N1CCC[C@H]1C(=O)N1CCC[C@H]1C(=O)N[C@H](C(=O)N[C@@H](CC(N)=O)C(=O)N[C@H](C(=O)NCC(=O)N[C@@H](CO)C(=O)N[C@@H](CC(N)=O)C(=O)N[C@H](C(=O)N[C@@H](Cc1ccc(O)cc1)C(N)=O)[C@@H](C)O)C(C)C)[C@@H](C)O, also called compound 6) | 0.996 | 5.7 | 0.729 | 0.128
{C20 diacid-γGlu}-KCNTATCATQRLAEFLRHSSPNFGAPLSSTNVGSNTP-NH2 (disulfide 2-7; SMILES CC(C)C[C@H](NC(=O)[C@H](CCCNC(=N)N)NC(=O)[C@H](CCC(N)=O)NC(=O)[C@@H](NC(=O)[C@H](C)NC(=O)[C@@H]1CSSC[C@H](NC(=O)[C@H](CCCCN)NC(=O)CC[C@H](NC(=O)CCCCCCCCCCCCCCCCCCC(=O)O)C(=O)O)C(=O)N[C@@H](CC(N)=O)C(=O)N[C@@H]([C@@H](C)O)C(=O)N[C@@H](C)C(=O)N[C@@H]([C@@H](C)O)C(=O)N1)[C@@H](C)O)C(=O)N[C@@H](C)C(=O)N[C@@H](CCC(=O)O)C(=O)N[C@@H](Cc1ccccc1)C(=O)N[C@@H](CC(C)C)C(=O)N[C@@H](CCCNC(=N)N)C(=O)N[C@@H](Cc1c[nH]cn1)C(=O)N[C@@H](CO)C(=O)N[C@@H](CO)C(=O)N1CCC[C@H]1C(=O)N[C@@H](CC(N)=O)C(=O)N[C@@H](Cc1ccccc1)C(=O)NCC(=O)N[C@@H](C)C(=O)N1CCC[C@H]1C(=O)N[C@@H](CC(C)C)C(=O)N[C@@H](CO)C(=O)N[C@@H](CO)C(=O)N[C@H](C(=O)N[C@@H](CC(N)=O)C(=O)N[C@H](C(=O)NCC(=O)N[C@@H](CO)C(=O)N[C@@H](CC(N)=O)C(=O)N[C@H](C(=O)N1CCC[C@H]1C(N)=O)[C@@H](C)O)C(C)C)[C@@H](C)O, also called compound 5) | 0.374 | 1 | 0.16 | 0.162
{C20 diacid-γGlu}-KCNTATCATQRLAEFLRHSSPNFGAPLSSTNVGSNTY-NH2 (disulfide 2-7; SMILES CC(C)C[C@H](NC(=O)[C@H](CCCNC(=N)N)NC(=O)[C@H](CCC(N)=O)NC(=O)[C@@H](NC(=O)[C@H](C)NC(=O)[C@@H]1CSSC[C@H](NC(=O)[C@H](CCCCN)NC(=O)CC[C@H](NC(=O)CCCCCCCCCCCCCCCCCCC(=O)O)C(=O)O)C(=O)N[C@@H](CC(N)=O)C(=O)N[C@@H]([C@@H](C)O)C(=O)N[C@@H](C)C(=O)N[C@@H]([C@@H](C)O)C(=O)N1)[C@@H](C)O)C(=O)N[C@@H](C)C(=O)N[C@@H](CCC(=O)O)C(=O)N[C@@H](Cc1ccccc1)C(=O)N[C@@H](CC(C)C)C(=O)N[C@@H](CCCNC(=N)N)C(=O)N[C@@H](Cc1c[nH]cn1)C(=O)N[C@@H](CO)C(=O)N[C@@H](CO)C(=O)N1CCC[C@H]1C(=O)N[C@@H](CC(N)=O)C(=O)N[C@@H](Cc1ccccc1)C(=O)NCC(=O)N[C@@H](C)C(=O)N1CCC[C@H]1C(=O)N[C@@H](CC(C)C)C(=O)N[C@@H](CO)C(=O)N[C@@H](CO)C(=O)N[C@H](C(=O)N[C@@H](CC(N)=O)C(=O)N[C@H](C(=O)NCC(=O)N[C@@H](CO)C(=O)N[C@@H](CC(N)=O)C(=O)N[C@H](C(=O)N[C@@H](Cc1ccc(O)cc1)C(N)=O)[C@@H](C)O)C(C)C)[C@@H](C)O, also called compound 7) [N^α1-[(4S)-4-carboxy-4-(19-carboxynonadecanoylamino)butanoyl]-[Glu14,Arg17,Pro21,Pro26]-h-amylin] | 0.674 | 4.5 | 1.16 | 0.255

The remaining binders from weak to strong by IC50 [1], led by results:

IC50 [1] [nM] | Ratio hCT/hAmylin funct. [2] | hCTR funct. EC50 [2] [nM] | hAmylin-R funct. EC50 [3] [nM] | Binder
1.18 | 12 | 2.7 | 0.224 | K([γGlu-γGlu-C20 diacid])CNTATCATQRLADFLRHSSPNFGAPLSSTNVGSDTY-NH2 (disulfide 2-7; N-terminus assumed; SMILES CC(C)C[C@H](NC(=O)[C@H](CCCNC(=N)N)NC(=O)[C@H](CCC(N)=O)NC(=O)[C@@H](NC(=O)[C@H](C)NC(=O)[C@@H]1CSSC[C@H](NC(=O)[C@@H](N)CCCCNC(=O)CC[C@H](NC(=O)CC[C@H](NC(=O)CCCCCCCCCCCCCCCCCCC(=O)O)C(=O)O)C(=O)O)C(=O)N[C@@H](CC(N)=O)C(=O)N[C@@H]([C@@H](C)O)C(=O)N[C@@H](C)C(=O)N[C@@H]([C@@H](C)O)C(=O)N1)[C@@H](C)O)C(=O)N[C@@H](C)C(=O)N[C@@H](CC(=O)O)C(=O)N[C@@H](Cc1ccccc1)C(=O)N[C@@H](CC(C)C)C(=O)N[C@@H](CCCNC(=N)N)C(=O)N[C@@H](Cc1c[nH]cn1)C(=O)N[C@@H](CO)C(=O)N[C@@H](CO)C(=O)N1CCC[C@H]1C(=O)N[C@@H](CC(N)=O)C(=O)N[C@@H](Cc1ccccc1)C(=O)NCC(=O)N[C@@H](C)C(=O)N1CCC[C@H]1C(=O)N[C@@H](CC(C)C)C(=O)N[C@@H](CO)C(=O)N[C@@H](CO)C(=O)N[C@H](C(=O)N[C@@H](CC(N)=O)C(=O)N[C@H](C(=O)NCC(=O)N[C@@H](CO)C(=O)N[C@@H](CC(=O)O)C(=O)N[C@H](C(=O)N[C@@H](Cc1ccc(O)cc1)C(N)=O)[C@@H](C)O)C(C)C)[C@@H](C)O, also called compound 1)
0.915 | 2.2 | 0.528 | 0.243 | {C20 diacid-γGlu}-KCNTATCATQRLAEFLRHSSPNFGAILPSTNVGSETY-NH2 (disulfide 2-7, also called compound 33)
0.321 | 1.2 | 0.07 | 0.06 | {C20 diacid-γGlu}-KCNTATCATQRLAEFLRHSSPNFGPILPPTNVGSNTP-NH2 (disulfide 2-7; SMILES CC[C@H](C)[C@H](NC(=O)[C@@H]1CCCN1C(=O)CNC(=O)[C@H](Cc1ccccc1)NC(=O)[C@H](CC(N)=O)NC(=O)[C@@H]1CCCN1C(=O)[C@H](CO)NC(=O)[C@H](CO)NC(=O)[C@H](Cc1c[nH]cn1)NC(=O)[C@H](CCCNC(=N)N)NC(=O)[C@H](CC(C)C)NC(=O)[C@H](Cc1ccccc1)NC(=O)[C@H](CCC(=O)O)NC(=O)[C@H](C)NC(=O)[C@H](CC(C)C)NC(=O)[C@H](CCCNC(=N)N)NC(=O)[C@H](CCC(N)=O)NC(=O)[C@@H](NC(=O)[C@H](C)NC(=O)[C@@H]1CSSC[C@H](NC(=O)[C@H](CCCCN)NC(=O)CC[C@H](NC(=O)CCCCCCCCCCCCCCCCCCC(=O)O)C(=O)O)C(=O)N[C@@H](CC(N)=O)C(=O)N[C@@H]([C@@H](C)O)C(=O)N[C@@H](C)C(=O)N[C@@H]([C@@H](C)O)C(=O)N1)[C@@H](C)O)C(=O)N[C@@H](CC(C)C)C(=O)N1CCC[C@H]1C(=O)N1CCC[C@H]1C(=O)N[C@H](C(=O)N[C@@H](CC(N)=O)C(=O)N[C@H](C(=O)NCC(=O)N[C@@H](CO)C(=O)N[C@@H](CC(N)=O)C(=O)N[C@H](C(=O)N1CCC[C@H]1C(N)=O)[C@@H](C)O)C(C)C)[C@@H](C)O, also called compound 4)
